Assay results reported in patent US6379665B1, “Phospholipase D polypeptide and DNA sequences” (Onyx Pharmaceuticals, Inc., priority 1996, dated 2002).

Tested on: COS-7 cells
Experiment: standard headgroup assay of extracts of COS-7 cells transfected with mPLD2
Type: biochemical
Settings: pCGN expression vector
Experimental: Human PLD1a was also expressed in COS-7 cells. A fragment of the hPLD1a cDNA encoding the entire open reading frame (nucleotides 93 through 3603 of the cDNA) was subcloned in-frame downstream of the cytomegalovirus promoter and the Flu epitope tag in the mammalian expression vector pCGN. COS-7 cells were transfected with 3 g of the resulting plasmid, pFlu-hPLD1, using lipofectamine (Life Technologies, Inc.). Forty-eight hours later, the cells were assayed for PLD activity in the standard headgroup assay referenced below. The time course of choline release varied linearly over time and in proportion to the amount of protein added.
mPLD2 activity was assessed as described in Example 3 for hPLD1. The mPLD2 protein coding sequence was subcloned in pCGN, an expression vector containing a CMV promoter, flu-epitope tag and an SV40 polyadenylation signal sequence. See Example 3. […] The protein coding sequence of mPLD2 was also subcloned in a baculovirus vector following the protocol of Example 3. mPLD2 activity was successfully detected using the procedures described in Example 3.

B1: mPLD2: murine phospholipase D2, approximately 932 amino acid protein, SEQ ID NO:8 (protein, UniProt P97813 1-933, looked up)
Phospholipase D2: MTVTQKNLFPYGDYLNSSQLHMEPDEVDTLREGEDPADRMHPYLAIYDLQPLKAHPLVFAPGVPVIAQVVGTERYTSGSKVGTCTLYSVRLTHGDFTWTTKKKFRHFQELHRDLQRHKVLMSLLPLARFAVTHSPAREAAAEDIPSLPRGGSEGSARHTASKQKYLENYLNRLLTMSFYRNYHAMTEFLEVSQLSFIPDLGSKGLEGVIRKRSGGHRVPGFTFCGRDQVCYRWSKRWLVVKDSFLLYMRPETGAISFVQLFDPGFEVQVGKRSTETRYGVRIDTSHRSLILKCSSYRQARWWGQEITELAQGSGRDFLQLHQHDSYAPPRPGTLARWFVNGAGYFAAVADAILRAQEEIFITDWWLSPEIYLKRPAHSDDWRLDIMLKRKAEEGVRVSILLFKEVELALGINSGYSKRTLMLLHPNIKVMRHPDLVTLWAHHEKLLVVDQVVAFLGGLDLAFGRWDDVQYRLTDLGDPSEPVHLQTPTLGSDPAATPDLSHNQFFWLGKDYSNLITKDWVQLDRPFEDFIDRETTPRMPWRDVGVVVHGVAARDLARHFIQRWNFTKTTKARYKTPLYPYLLPKSTSTANNLPFMIPGGQCATVQVLRSVDRWSAGTLENSILNAYLHTIRESQHFLYIENQFFISCSDGRTVLNKVGDEIVDRILKAHEQGQCFRVYLLLPLLPGFEGDISTGGGNSIQAILHFTYRTLCRGEHSILHRLKAAMGTAWRDYMSICGLRTHGELGGHPISELIYIHSKMLIADDRTVIIGSANINDRSLLGKRDSELAILIKDTEMEPSLMDGVEYQAGRFALSLRKHCFSVILGANTWPDLDLRDPVCDDFFQLWQETAENNATIYEQIFRCLPSNATRSLRALREYVAVESLATVSPSLAQSELAHIQGHLVHFPLKFLEDESLLPPLGSKEGMIPLEVWT
- PLD activity in transfected COS-7 cell extracts: far above COS-7 background levels
